One test addresses T1, HLA-B*0702 (Homo sapiens, UniProt P01889).
T1 construct: endogenous in cells; host or cells: melanoma and/or leukemia cells
The experiment in a line: Phosphopeptides presented in association with class I molecules (HLA-B*0702) on cancer cells: melanoma and/or leukemia. On the set-up: key: Melanoma (M); Leukemia (L); L/M: Melanoma (M) and/or Leukemia (L). Conditions: cancer type on which the HLA-B*0702 phosphopeptide is presented.

In test [1] the target is T2, HLA-B*0702 (HLA-B7) peptide complexes (Homo sapiens, UniProt P01889).
T2 construct: endogenous in cells; host or cells: JY B-lymphoblastoid line; primary ALL, CLL, HCL, AML samples; bone marrow; healthy B and T cells
The experiment in a line: HLA-B*0702 phosphopeptides associated with leukemia samples (isolation of HLA-associated peptides). Conditions: for Copies/cell class, ALL1: acute lymphoblastic leukemia sample ALL1. The text has this:
To identify naturally processed tumor-associated phosphopeptides, HLA-A*0201 (HLA-A2) and HLA-B*0702 (HLA-B7) peptide complexes from four (4) chronic lymphocytic leukemia (CLL) tumor samples, a mantle cell lymphoma sample (MCL), one acute lymphoblastic leukemia (ALL), and an acute myeloid leukemia (AML) sample, in addition to healthy splenic T and B-cells and the cultured lymphoblastoid cell line JY were isolated. These efforts yielded 10 HLA-A2-restricted and 86 HLA-B7-restricted phosphopeptide antigens (see Tables 6 and 7).
All cell lines were grown at 37° C. with 5% CO2 in growth medium consisting of RPMI 1640 supplemented with 10% FCS and two mM L-glutamine. Blood or leukapheresis samples were taken from patients with high-burden leukemia in heparin. Tumor cells were recovered by layering the blood over density gradient (Ficoll) and collecting the tumor layer following centrifugation. The tumor was washed in tris-buffered saline (TBS). The purity of the tumor was assessed using flow cytometry and was >98% pure in all cases. For healthy T and B-cell populations, a normal spleen sample processed and tonsil sample was collected and lymphocytes released through mechanical disruption. Mononuclear cells were isolated using a density gradient and 10^9 T cells isolated using anti-CD19 or anti-CD3 microbeads (Miltenyi Biotec Inc., Auburn, California, United States of America) with purity >98% were obtained. Bone marrow sample was obtained from an elective orthopedic procedure and red cell-depleted using hypotonic lysis. This sample was not processed further.
Class I MHC molecules were immunoaffinity purified from the JY cell line or from primary tumor samples, and their associated peptides were extracted as previously described in Zarling et al., 2006. Approximately 1.2-14×10^9 cells were lysed in a solution containing 20 mM Tris-HCl (pH 8.0), 150 mM NaCl, 1% CHAPS, one mM PMSF, five μg/mL aprotinin, 10 μg/mL leupeptin, 10 μg/mL pepstatin A, 1 μg/ml calyculin A, and phosphatase inhibitor (cocktails I and II; Sigma-Aldrich). The mixture was subjected to centrifugation and the resulting supernatant was passed over protein A sepharose pre-loaded with the HLA-A2-specific antibody BB7.2 or HLA-B7-specific antibody MEL Peptides were eluted from the purified class I MHC molecules with 10% acetic acid.

Non-standard residues stand in square brackets, D forms with d. No end group written: not given here. pT = C[C@@H](OP(=O)(O)O)[C@H](N)C(=O)O; pS = N[C@@H](COP(=O)(O)O)C(=O)O

With “266 (APRKG[pS]FSALM; listed as Homo sapiens) [compound 266]”, in the test with HLA-B*0702, the L/M result is “M”.
As to “267 (APRRY[pS]SSL; listed as Homo sapiens) [compound 267]”, in the test with HLA-B*0702, the L/M entry is “L/M”. In test [1], the “Copies/cell class, AML1” value is 1 (1 indicates <1 copy/cell).
For “268 (APR[pS]PPPSRP; listed as Homo sapiens) [compound 268]”, the L/M entry with HLA-B*0702 is reported as “M”.
“269 (EPKRR[pS]ARL; listed as Homo sapiens) [compound 269]”: the L/M result in the test with HLA-B*0702 was “L”. The “Copies/cell class, AML1” value in test [1] was 1 (1 indicates <1 copy/cell).
Taken in the same sequence, the figures for “270 (EPR[pS]PSHSM; listed as Homo sapiens) [compound 270]” were “L” and 1 (1 indicates <1 copy/cell).
Turning to “271 (FPH[pS]LLSVI; listed as Homo sapiens) [compound 271]”, the L/M entry with HLA-B*0702 is given as “M”.
Regarding “272 (FRR[pS]PTKSSL; listed as Homo sapiens) [compound 272]”, in the test with HLA-B*0702, the L/M entry is listed as “L”. Also, the “Copies/cell class, AML1” value in test [1] is recorded as 2 (2 indicates 1-5 copies/cell).
As to “273 (FRR[pS]PTKSSLDY; listed as Homo sapiens) [compound 273]”, the L/M entry with HLA-B*0702 is given as “L”. For the same substance, the “Copies/cell class, AML1” value in test [1] was 4 (4 indicates >25 copies per cell).
With “274 (FSI[pS]PVRL; listed as Homo sapiens) [compound 274]”, in the test with HLA-B*0702, the L/M result is “L”. Besides, the “Copies/cell class, ALL1” value in test [1] is given as 4 (4 indicates >25 copies per cell). For the same substance, the “Copies/cell class, B Cell” value in test [1] (healthy B cells) is 2 (2 indicates 1-5 copies/cell). The “Copies/cell class, T Cell” value in test [1] (healthy T cells) is 2 (2 indicates 1-5 copies/cell).
“275 (GAQPGRH[pS]V; listed as Homo sapiens) [compound 275]”: the L/M entry with HLA-B*0702 is listed as “M”.
With “276 (GPRSA[pS]LL[pS]L; listed as Homo sapiens) [compound 276]”, the L/M entry in the test with HLA-B*0702 is “L”.
Consider “277 (GPRSASLL[pS]L; listed as Homo sapiens) [compound 277]”, for which, in the test with HLA-B*0702, the L/M entry is listed as “M”. The “Copies/cell class, AML1” value in test [1] is 4 (4 indicates >25 copies per cell).
Take “278 (GPR[pS]ASLLSL; not fully specified; listed as Homo sapiens) [compound 278]”: the L/M result with HLA-B*0702 is “M”. Besides, the “Copies/cell class, AML1” value in test [1] is given as 3 (3 indicates 6-25 copies per cell).
For “279 (HPR[pS]PTPTL; listed as Homo sapiens) [compound 279]”, the L/M result with HLA-B*0702 was “M”.
In the case of “280 (HPRSP[pT]PTL; listed as Homo sapiens) [compound 280]”, the L/M entry with HLA-B*0702 is given as “M”.
Turning to “281 (KAR[pS]PGRAL; listed as Homo sapiens) [compound 281]”, the L/M entry with HLA-B*0702 is listed as “M”.
Take “282 (KPA[pS]PARRL; listed as Homo sapiens) [compound 282]”: the L/M result with HLA-B*0702 was “L”. For the same substance, in test [1] (CLL2), the “Copies/cell class, CLL2” value is on record as 1 (1 indicates <1 copy/cell). The “Copies/cell class, JY” value in test [1] (JY) is on record as 1 (1 indicates <1 copy/cell). Besides, the “Copies/cell class, ALL1” value in test [1] is on record as 1 (1 indicates <1 copy/cell). Further, the “Copies/cell class, HCL1” value in test [1] (hairy cell leukemia sample HCL1) is reported as 1 (1 indicates <1 copy/cell).
In the case of “286 (KPP[pS]PSPIEM; listed as Homo sapiens) [compound 286]”, the L/M result with HLA-B*0702 is given as “L”.
Consider “290 (KPRPPPL[pS]P; listed as Homo sapiens) [compound 290]”, for which, in the test with HLA-B*0702, the L/M entry is given as “M”.
For the substance “292 (KPR[pS]PPRAL; listed as Homo sapiens) [compound 292]”, in the test with HLA-B*0702, the L/M entry was “L/M”.
On to “293 (KPR[pS]PPRALV; listed as Homo sapiens) [compound 293]”, for which the L/M entry with HLA-B*0702 is reported as “M”.
Same read-out and setting: the same measure for “294 (KPR[pS]PPRALVL; listed as Homo sapiens) [compound 294]”: “M”; for “298 (LPIFSRL[pS]I; listed as Homo sapiens) [compound 298]”: “L”.
Regarding “299 (LPK[pS]PPYTAF; listed as Homo sapiens) [compound 299]”, the L/M result in the test with HLA-B*0702 is recorded as “M”.
“300 (LPRGS[pS]PSVL; listed as Homo sapiens) [compound 300]”: in the test with HLA-B*0702, the L/M result was “M”.
For “301 (MPRQP[pS]ATRL; listed as Homo sapiens) [compound 301]”, the L/M result with HLA-B*0702 is on record as “M”.
As for “311 (RPA[pT]PTSQF; listed as Homo sapiens) [compound 311]”, the L/M entry with HLA-B*0702 is given as “M”.
For “316 (RPI[pS]PGLSY; listed as Homo sapiens) [compound 316]”, the L/M entry with HLA-B*0702 was “L”.
As to “326 (RPRG[pS]QSLL; listed as Homo sapiens) [compound 326]”, the L/M entry with HLA-B*0702 is listed as “M”.
“329 (RPRR[pS]STQL; listed as Homo sapiens) [compound 329]”: the L/M result with HLA-B*0702 is listed as “M”.
For the substance “332 (RPRSL[pS]SPTVTL; listed as Homo sapiens) [compound 332]”, in the test with HLA-B*0702, the L/M result is recorded as “M”.
Same read-out and setting: under “335 (RPR[pS]PPPRAP; listed as Homo sapiens) [compound 335]” stands “M”; under “340 (RPRPV[pS]PSSL; listed as Homo sapiens) [compound 340]”, “L”.
On the same count and under the same terms, the same measure for “341 (RPSGRRE[pS]L; listed as Homo sapiens) [compound 341]”: “M”; for “345 (RPS[pT]PKSDSEL; listed as Homo sapiens) [compound 345]”: “L”; for “353 (RRL[pS]GPLHTL; listed as Homo sapiens) [compound 353]”: “M”.
Regarding “354 (RRP[pS]YTLGM; listed as Homo sapiens) [compound 354]”, in the test with HLA-B*0702, the L/M result is listed as “M”.
“355 (RR[pS][pS]FLQVF; listed as Homo sapiens) [compound 355]”: the L/M entry in the test with HLA-B*0702 is recorded as “M”.
On the same count and under the same terms, under “357 (RR[pS]SQSWSL; listed as Homo sapiens) [compound 357]” stands “M”; under “362 (RSR[pS]PRPAL; listed as Homo sapiens) [compound 362]”, “M”.
Same read-out and setting: the same measure for “364 (RTF[pS]PTYGL; listed as Homo sapiens) [compound 364]”: “M”.
As for “365 (RTR[pS]PSPTL; listed as Homo sapiens) [compound 365]”, in the test with HLA-B*0702, the L/M entry was “M”.
For “369 (SPFKRQL[pS]L; listed as Homo sapiens) [compound 369]”, the L/M entry with HLA-B*0702 is “M”.
For “372 (SPK[pS]PTAAL; listed as Homo sapiens) [compound 372]”, in the test with HLA-B*0702, the L/M result was “M”.
Still for that read-out and setting: the same measure for “373 (SPRER[pS]PAL; listed as Homo sapiens) [compound 373]”: “M”; for “375 (SPRR[pS]RSI[pS]L; listed as Homo sapiens) [compound 375]”: “L/M”; for “380 (SPRTPV[pS]PVKF; listed as Homo sapiens) [compound 380]”: “M”.
For the substance “381 (SPR[pT]PV[pS]PVKF; listed as Homo sapiens) [compound 381]”, the L/M entry with HLA-B*0702 is reported as “M”.
On the same count and under the same terms, the same measure for “384 (SPVVHQ[pS]L; listed as Homo sapiens) [compound 384]”: “M”; for “390 (YPS[pS]PRKL; listed as Homo sapiens) [compound 390]”: “M”.

For the origin of these results see patent US12042530B2, “Target peptides for immunotherapy and diagnostics” (University of Virginia Patent Foundation, priority 2012, dated 2024).
